Literature values, collected in publication PMC2853873.
pKi: −log10 of the molar value. Like-named read-outs stand apart in the source and are kept apart here.

Experiments:
ADAMTS-2 (Homo sapiens) [1] = target: ADAMTS-2 (Homo sapiens) (UniProt O95450)
ADAMTS-2 (Homo sapiens) [2] = target: ADAMTS-2 (Homo sapiens) (UniProt O95450); remark: listed apart in the source

UniProt O95450, sequence (O95450 254-1211): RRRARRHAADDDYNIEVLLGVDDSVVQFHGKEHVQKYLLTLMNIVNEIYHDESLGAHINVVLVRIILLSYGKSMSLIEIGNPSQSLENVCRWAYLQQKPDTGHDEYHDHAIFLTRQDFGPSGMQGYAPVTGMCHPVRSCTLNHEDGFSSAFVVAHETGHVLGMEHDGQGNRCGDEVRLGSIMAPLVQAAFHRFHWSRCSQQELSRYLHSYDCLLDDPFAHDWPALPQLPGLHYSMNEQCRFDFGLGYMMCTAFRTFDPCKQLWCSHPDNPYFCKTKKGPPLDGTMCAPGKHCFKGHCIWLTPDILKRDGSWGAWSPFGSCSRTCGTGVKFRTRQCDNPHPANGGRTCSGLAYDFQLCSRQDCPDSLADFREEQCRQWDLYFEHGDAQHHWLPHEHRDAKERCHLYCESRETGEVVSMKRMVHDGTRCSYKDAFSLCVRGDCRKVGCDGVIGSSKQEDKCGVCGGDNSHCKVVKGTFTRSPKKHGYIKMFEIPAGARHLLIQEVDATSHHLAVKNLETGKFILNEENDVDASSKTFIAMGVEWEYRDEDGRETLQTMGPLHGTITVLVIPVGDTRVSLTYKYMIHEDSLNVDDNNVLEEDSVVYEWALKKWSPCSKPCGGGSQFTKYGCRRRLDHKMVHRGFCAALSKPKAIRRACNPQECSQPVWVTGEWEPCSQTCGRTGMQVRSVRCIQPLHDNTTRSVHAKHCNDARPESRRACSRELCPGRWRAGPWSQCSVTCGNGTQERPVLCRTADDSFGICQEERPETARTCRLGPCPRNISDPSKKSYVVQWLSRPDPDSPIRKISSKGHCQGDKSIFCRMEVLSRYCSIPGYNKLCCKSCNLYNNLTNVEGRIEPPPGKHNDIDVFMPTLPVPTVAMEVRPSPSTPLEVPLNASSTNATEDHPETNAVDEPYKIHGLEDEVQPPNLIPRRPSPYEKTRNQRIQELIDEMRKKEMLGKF

N-TIMP-3 N-terminal domain (from UniProt P35625)
pKi (ADAMTS-2 (Homo sapiens) [1]): 6.80 | pKi (ADAMTS-2 (Homo sapiens) [2]): 6.22
